Molecular target: human αVβ3/5 integrins on human tumor cells (A375.S2, MDA-MB-231, A2780, HT29, A549) (human, UniProt P06756 31-1048)
Assay: cell-based or functional assay

Chain of human αVβ3/5 integrins on human tumor cells (A375.S2, MDA-MB-231, A2780, HT29, A549) (P06756 31-1048): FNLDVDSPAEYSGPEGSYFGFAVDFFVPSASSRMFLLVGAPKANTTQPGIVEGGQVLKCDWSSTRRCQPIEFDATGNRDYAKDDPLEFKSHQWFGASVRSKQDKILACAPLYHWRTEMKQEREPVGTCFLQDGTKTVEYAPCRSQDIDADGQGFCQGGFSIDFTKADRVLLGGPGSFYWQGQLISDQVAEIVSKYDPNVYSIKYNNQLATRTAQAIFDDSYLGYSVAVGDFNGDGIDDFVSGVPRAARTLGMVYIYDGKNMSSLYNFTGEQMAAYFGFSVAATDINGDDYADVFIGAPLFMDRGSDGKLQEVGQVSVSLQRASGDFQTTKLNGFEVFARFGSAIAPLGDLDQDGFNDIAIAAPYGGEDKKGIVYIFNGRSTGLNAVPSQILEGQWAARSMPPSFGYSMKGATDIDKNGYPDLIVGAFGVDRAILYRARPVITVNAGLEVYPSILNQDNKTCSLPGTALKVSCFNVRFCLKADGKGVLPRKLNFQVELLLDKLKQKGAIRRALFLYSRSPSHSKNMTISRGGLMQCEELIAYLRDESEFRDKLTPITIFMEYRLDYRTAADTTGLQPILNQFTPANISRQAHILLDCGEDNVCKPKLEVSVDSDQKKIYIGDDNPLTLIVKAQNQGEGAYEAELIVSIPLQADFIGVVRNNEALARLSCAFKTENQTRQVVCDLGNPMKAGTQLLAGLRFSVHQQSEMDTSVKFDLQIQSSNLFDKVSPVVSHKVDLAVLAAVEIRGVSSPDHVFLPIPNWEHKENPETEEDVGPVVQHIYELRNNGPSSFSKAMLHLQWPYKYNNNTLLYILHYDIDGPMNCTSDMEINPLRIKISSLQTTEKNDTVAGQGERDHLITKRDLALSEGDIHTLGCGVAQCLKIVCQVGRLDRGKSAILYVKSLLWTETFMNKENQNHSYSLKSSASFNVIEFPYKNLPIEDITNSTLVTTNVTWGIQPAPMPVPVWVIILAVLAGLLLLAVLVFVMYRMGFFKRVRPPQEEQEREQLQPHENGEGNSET

- Increase (ratio of IC50 of liposome-entrapped doxorubicin to IC50 of 90:1 integrin-targeted liposomes), breast cancer MDA-MB-231: 5
- Increase (ratio of IC50 of liposome-entrapped doxorubicin to IC50 of 90:1 integrin-targeted liposomes), colon cancer HT29: 1.1
- Increase (ratio of IC50 of liposome-entrapped doxorubicin to IC50 of 90:1 integrin-targeted liposomes), lung cancer A549: 1
- Increase (ratio of IC50 of liposome-entrapped doxorubicin to IC50 of 90:1 integrin-targeted liposomes), melanoma A375.S2: 29
- Increase (ratio of IC50 of liposome-entrapped doxorubicin to IC50 of 90:1 integrin-targeted liposomes), ovarian cancer A2780: 29
B1: CNTO95 Fab′ (from pepsin cleavage, reduction and reoxidation) conjugated to PEG-DSPE on the surface of liposomes (Fab, V domains shown)
VH: QVQLVESGGGVVQPGRSRRLSCAASGFTFSRYTMHWVRQAPGKGLEWVAVISFDGSNKYYVDSVKGRFTISRDNSENTLYLQVNILRAEDTAVYYCAREARGSYAFDIWGQGTMVTVSS
VL: EIVLTQSPATLSLSPGERATLSCRASQSVSSYLAWYQQKPGQAPRLLIYDASNRATGIPARFSGSGSGTDFTLTISSLEPEDFAVYYCQQRSNWPPFTFGPGTKVDIKR
modifications: free sulfhydryl near the C-terminus conjugated to maleimide-PEG-DSPE inserted in the liposome
